The assay concerns the target T1, human complement C1q (from natural human complement serum) (human, UniProt P02745 23-245; P02746 28-253; P02747 29-245).
T1 construct: Whole human complement serum was added to the coated MAb; also called complement human serum
Nature of the assay: ELISA, MAb coated on the plate, natural human complement added, detection with anti-human C1q peroxidase conjugate.

T1 sequence (P02745 23-245 limits assumed, chain 1 of 3): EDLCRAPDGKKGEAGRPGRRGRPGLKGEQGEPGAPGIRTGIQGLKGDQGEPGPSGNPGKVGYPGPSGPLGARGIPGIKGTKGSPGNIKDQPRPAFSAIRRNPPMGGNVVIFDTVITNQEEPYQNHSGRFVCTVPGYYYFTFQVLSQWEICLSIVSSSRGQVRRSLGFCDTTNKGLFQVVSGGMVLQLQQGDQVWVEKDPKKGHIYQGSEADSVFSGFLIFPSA
T1 sequence (P02746 28-253 limits assumed, chain 2 of 3): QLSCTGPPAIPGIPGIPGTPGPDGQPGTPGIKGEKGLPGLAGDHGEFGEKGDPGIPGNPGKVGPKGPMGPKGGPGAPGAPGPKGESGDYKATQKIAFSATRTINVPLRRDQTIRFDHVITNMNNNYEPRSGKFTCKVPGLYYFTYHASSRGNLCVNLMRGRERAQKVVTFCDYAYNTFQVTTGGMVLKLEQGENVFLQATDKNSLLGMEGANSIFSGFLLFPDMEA
T1 sequence (P02747 29-245 limits assumed, chain 3 of 3): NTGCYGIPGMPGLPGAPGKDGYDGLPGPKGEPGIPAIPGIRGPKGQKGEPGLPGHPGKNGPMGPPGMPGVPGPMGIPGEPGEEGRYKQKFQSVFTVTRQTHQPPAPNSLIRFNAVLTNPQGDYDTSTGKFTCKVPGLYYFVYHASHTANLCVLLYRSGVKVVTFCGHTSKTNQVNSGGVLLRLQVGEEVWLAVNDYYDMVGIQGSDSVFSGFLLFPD
Protocol: The binding of human complement serum to MAbs was assessed by an ELISA binding assay. The 96-well plates (Nunc) were coated overnight at 4° C. with varying MAb concentrations. After washing, the plates were blocked with PBS-5% BSA for 1 h, and incubated for 1 h with 2.5 μl/well of natural human complement (Sigma). Then, 100 μl/well of a 1/500 dilution of sheep anti-human C1q peroxidase-conjugated Ab (Abd Serotec) added and incubated for 1h. The plates were developed with 100 μl per well of TMB substrate (Uptima Interchim). After H₂SO₄ addition, the OD was measured at 450 nm/630 nm using a MRX II microplate reader. Data represent mean+/−SD of two independent experiments.

B1: chR005-1 Fc24 (antibody, human IgG1, name in EU numbering)
heavy: QVQLQQSGAELVRPGSSVKISCKASGYAFSSYWVNWMKQRPGQGLEWIGQIYPGDGDTNYNGKFKGRATVTADKSSSTSYMQFSSLTSEDSAVYFCARSITTVVGCAMDYWGQGTSVTVSSASTKGPSVFPLAPSSKSTSGGTAALGCLVKDYFPEPVTVSWNSGALTSGVHTFPAVLQSSGLYSLSSVVTVPSSSLGTQTYICNVNHKPSNTKVDKKVEPKSCDKTHTCPPCPAPELLGGPSVFLLPPKPKDTLMISRTPEVTCVVVDVSHEDPEVKFNWYVDGVEVHNAKTKPPEEQYNSTLRVVSLLTVLHQDWLNGKEYKCKVSNAALPAPIAKTISKAKGQPREPQVYTLPPSRDELTKNQVSLTCLVKGFYPSDIAVEWESNGQPENNYKTTPLVLDSDGSFFLYSKLTVDKSRWQQGNVFSCSVMHEALHNHYTQKSLSLSPGK
light: DIQMTQSSAYLSVSLGGRVTITCKASDHINNWLAWYQHKPGNAPRLLISGATTLETGVPSRFSGSGSGKDYTLSITSLQTEDVATYYCQQSWNTPWTFGGGTK
notes: also called chR005-1 MAb Fc24 optimized variant; not shown: human light chain constant region
Turning to B1, the binding result is “binds”.

The record behind these values is patent US20130183306A1 (INTERNATIONAL DRUG DEVELOPMENT BIOTECH, published 2013).
